These results are taken from patent US20090068110A1, “ANTIBODIES TO INSULIN-LIKE GROWTH FACTOR RECEPTOR” (Genentech, Inc., priority 2006, published 2009).

Residue numbers refer to the chain shown, from its start.

The target in series [1] is human IGF-1R-ECD (secreted recombinant extracellular domain, amino acids 1-902, tagged with 10 or 12 histidine residues at the carboxyl terminus) (human) (UniProt P08069). As to the kind of experiment: competition ELISA: antibody pre-incubated on plate-coated human IGF-1R-ECD, then biotinylated IGF-I (blocked ligand), streptavidin-HRP, A450.
Series [2] shares this target. As to the kind of experiment: solid-phase binding assay: serially diluted antibody on plate-coated human IGF-1R-ECD, then biotinylated IGF-I (blocked ligand), streptavidin-HRP, A450; n=3.
For series [3] the target is unchanged. In words: solid-phase binding assay: serially diluted antibody on plate-coated human IGF-1R-ECD, then biotinylated IGF-II (blocked ligand), streptavidin-HRP, A450; n=3.
In series [4] the test system is SW527 xenograft tumors. As to the kind of experiment: SW527 breast-cancer xenograft model. Type of series: in vivo, SCID beige mice. The text has this:
Female nude (nu/nu) and C.B-17 SCID beige mice were obtained from Charles Rivers Laboratories, Inc. (Hollister, Calif.). Animals were about six to eight weeks old and weighed about 25 grams each. Mice were acclimated to study conditions for at least three days before tumor-cell inoculations. The animals were housed in standard rodent micro-isolator cages. Only animals that appeared to be healthy and that were free of obvious abnormalities were used for the study. Each mouse was given a subcutaneous injection of SK-N-AS cells (10 million), SW527 cells (5 million), Colo205 cells (5 million), or A549 cells (5 million) into the dorsal right flank in a volume of 0.2 mL. Data collected from each experimental group were expressed as mean tumor volume±the standard error of the mean (SEM). Tumors were monitored until they reached a mean volume of 130-260 mm3. […] Tumors were measured twice weekly throughout the experiment starting on the first day of treatment. Tumor volumes were measured in two dimensions (length and width) using ULTRA CAL-IV™ calipers (Model 54-10-111, Fred V. Fowler Company, Inc.; Newton, Mass.), and calculated using the formula of: […]
Tumor-inhibition and body-weight graphs were plotted using […]™ 3.6 software (Synergy Software; Reading, Pa.). […]
Tumor incidence was determined by the number of measurable tumors in each group. […]

Series [5] concerns the target human IGF-1R-ECD (secreted recombinant extracellular domain, amino acids 1-902, tagged with 10 or 12 histidine residues at the carboxyl terminus) (human) (UniProt P08069). As to the kind of experiment: BIACORE surface plasmon resonance: IGF-1R immobilized on CM5 chip (about 500 RU), Fab injected 500-3.1 nM, 25 C, 1:1 Langmuir model.
Series [6] has as its target murine IGF-1R-ECD (murine) (UniProt Q60751). Described as above.
Series [7] has as its target human IGF-1R-ECD (secreted recombinant extracellular domain, amino acids 1-902, tagged with 10 or 12 histidine residues at the carboxyl terminus) (human) (UniProt P08069). In words: BIACORE surface plasmon resonance: IGF-1R immobilized on CM5 chip (about 500 RU), IgG injected 250-0.78 nM, 25 C, 1:1 Langmuir model (apparent affinity).
For series [8], the target named is cynomolgus-monkey IGF-1R (cynomolgus monkey, UniProt G7P9I7 31-908). The description is as above.
Sequence of cynomolgus-monkey IGF-1R (G7P9I7 entry or part of it): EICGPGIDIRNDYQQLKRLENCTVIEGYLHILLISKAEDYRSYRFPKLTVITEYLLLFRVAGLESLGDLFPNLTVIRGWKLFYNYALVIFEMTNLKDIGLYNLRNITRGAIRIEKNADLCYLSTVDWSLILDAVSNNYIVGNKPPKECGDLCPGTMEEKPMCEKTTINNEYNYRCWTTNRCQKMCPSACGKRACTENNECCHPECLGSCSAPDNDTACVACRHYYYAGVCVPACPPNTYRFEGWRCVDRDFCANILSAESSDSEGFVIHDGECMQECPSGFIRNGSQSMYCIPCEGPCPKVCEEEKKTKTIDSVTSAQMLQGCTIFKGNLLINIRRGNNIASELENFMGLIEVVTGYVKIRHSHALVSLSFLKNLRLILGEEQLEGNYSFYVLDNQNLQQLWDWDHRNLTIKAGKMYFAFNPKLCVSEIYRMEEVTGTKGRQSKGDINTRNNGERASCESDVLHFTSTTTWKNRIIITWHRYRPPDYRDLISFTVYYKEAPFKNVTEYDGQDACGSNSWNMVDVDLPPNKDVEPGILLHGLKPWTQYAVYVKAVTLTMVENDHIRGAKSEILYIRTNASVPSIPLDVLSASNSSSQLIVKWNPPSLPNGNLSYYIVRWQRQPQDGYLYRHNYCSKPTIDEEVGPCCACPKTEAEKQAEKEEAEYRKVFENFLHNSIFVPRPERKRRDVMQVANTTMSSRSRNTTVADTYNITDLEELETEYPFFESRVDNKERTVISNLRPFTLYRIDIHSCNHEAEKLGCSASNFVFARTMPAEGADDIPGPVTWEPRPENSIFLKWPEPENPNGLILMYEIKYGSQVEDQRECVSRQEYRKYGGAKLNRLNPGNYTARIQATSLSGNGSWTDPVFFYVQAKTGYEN
Series [9] addresses T1, human IGF-1R-ECD (Homo sapiens, UniProt P08069).
T1 construct: containing the extracellular domain (ECD, amino acids 1-902) tagged with 10 or 12 histidine residues at the carboxyl terminus; His10 or His12 (C); made in house; host or cells: CHO cells
In words: competitive ELISA, blocking of IGF-I/II and IGF-1R interaction. Type of series: binding. To be noted: antibody 100 nM to 0.0976 nM, biotinyl-IGF-I or IGF-II 60 ng/ml. The protocol: To determine whether the anti-IGF-1R antibodies could block ligand/receptor interaction, competitive ELISA was utilized. Human IGF-1R-ECD was coated overnight at 4° C. at 1 μg/ml in a 96-well immunoplate (Nalge Nunc International, Rochester, N.Y., USA). The ELISA plate was washed with wash buffer (PBS, 0.05% TWEEN™ 20 surfactant, pH 7.4), and 150 μl/well of blocking buffer (PBS with 0.5% BSA) was added for one hour at room temperature with gentle agitation. Purified anti-IGF-1R antibodies were first subjected to a two-fold dilution from 100 nM to 0.0976 nM in assay buffer (PBS, 0.5% BSA and 0.05% TWEEN™ 20 surfactant, pH 7.4) and added to the immunoplate to incubate at room temperature for one hour. Biothinyl-IGF-I or IGF-II at 60 ng/ml concentrations (Cell Science, Canton, Mass., USA) was then added and incubated for another 30 minutes. The ELISA plate was washed three times, and 100 μl/well of streptavidin-HRP (GE Healthcare, Piscataway, N.J., USA) at a dilution of 1:6,000 was added for 20 minutes. Color development was conducted as described in conjunction with the direct ELISA. The selected anti-IGF-1R antibodies inhibited IGF-I or IGF-II binding to IGF-1R to various degrees (FIGS. 19A and 19B for IGF-I and IGF-II, respectively).

Series [10] relates to IGF-1R signaling (phospho-IGF-1R, AKT, ERK1/2). In words: Western blotting of IGF-1R signaling in MCF7 cells. Type of series: cell-based, human. As for the experimental part:
Also examined was the effect of these antibodies on ligand-dependent IGF-1R signaling by directly analyzing IGF-1R phosphorylation as well as major downstream pathways, such as AKT and MAPK activation. In this assay, MCF7 cells were grown in 6-well plates and serum was withdrawn for 16 hours. […] The cells were directly lysed in SDS sample buffer, and the lysate was analyzed by Western blotting using antibodies against IGF-1R, phospho-IGF-1R, AKT, phospho-AKT, ERK1/2, phospho-ERK1/2 (also called MAPK1/2 and phospho-MAPK1/2) (all from Cell Signaling Technology, Inc.; Beverly, Mass., USA).
For the IGF-1R signaling pathway analysis, MCF7 cells were grown in six-well plates for 24 hours and then serum starved (serum-free and phenol-free RPMI medium supplemented with 1 mg/mL BSA) overnight. The cells were first incubated with h10H5 for 20 minutes, then stimulated with 50 ng/mL IGF-1 or 100 ng/mL IGF-11 for ten minutes. Cells were directly lysed in SDS sample buffer to preserve protein phosphorylation. After brief sonication, the lysates were separated by SDS-PAGE and transferred to nitrocellulose membranes (Invitrogen; Carlsbad, Calif.), which were probed with anti-phospho-IGF-1R, AKT, and ERK1/2 antibodies. The same blots were then stripped using Stripping Buffer™ (Pierce Biotechnology; Rockford, Ill.) and re-probed with antibodies against total IGF-1R β, AKT, and ERK1/2.

Series [11] concerns the target IGF-1R (Homo sapiens, UniProt P08069). In words: KIRA assay of IGF-1R phosphorylation in MCF7 cells. Type of series: cell-based. The arrangement: IGF-1R is normally localized at the plasma membrane of MCF7 cells; endogenous in cells; host or cells: MCF7. To be noted: IGF-I 10 ng/ml or IGF-II 50 ng/ml; ranking upon IGF-II stimulation. As for the experimental part: Also examined was whether the blocking activity of these antibodies was sufficient to interfere with receptor activation, which is measured by IGF-1R phosphorylation. A KIRA assay (kinase receptor activation) was utilized to perform quantitative analysis of IGF-1R phosphorylation in MCF7 cells. Anti-IGF-1R antibodies in serial dilutions (0.19 to 200 nM in medium) were added to MCF7 cells in 96-well plates for one hour. IGF-I (10 ng/ml) or IGF-11 (50 ng/ml) was subsequently added and incubated for ten minutes. The cells were lysed, and the resulting lysates were transferred to an ELISA plate, which was coated with IGF-1R-capturing antibody 3B7 (250 ng/well). After incubation for two hours, the cell lysate was removed, and the plates were washed. Phosphotyrosine-specific antibody 4G10 (Upstate, Charlottesville, Va., USA) was added to detect IGF-1R phosphorylation through TMB peroxidase substrate.

For the molecule IR3, commercial anti-IGF-1R antibody, the figures for the IC50 (read off the curve) in series [1], in series [2] and in [3] were 5 nM, 8 µg/mL and 5 µg/mL, respectively.
For `CC(=O)O[C@@]12CO[C@@H]1C[C@H](O)[C@@]1(C)C(=O)[C@H](O)C3=C(C)[C@@H](OC(=O)[C@H](O)[C@@H](NC(=O)OC(C)(C)C)c4ccccc4)C[C@@](O)([C@@H](OC(=O)c4ccccc4)[C@H]21)C3(C)C` [docetaxel], the “TGI on Day 14” value in series [4] (Example 5, h10H5 5 mg/kg weekly IP, docetaxel 12.5 mg/kg IV Days 0, 4, 8, B20-4.1 10 mg/kg weekly IP) is 54%. In series [4] (single-agent docetaxel 12.5 mg/kg, two mice Day 8, two mice Day 12), the “body weight losses leading to euthanasia” value was greater than 20%.

B1: YW95.6 (Fab, V domains shown)
VH: EVQLVESGGGLVQPGGSLRLSCAASGFTFSSYAMSWVRQAPGKGLEWVSRISPSGGSTYYADSVKGRFTISADTSKNTAYLQMNSLRAEDTAVYYCAREEYYYWGAMDVWGQGTLVTVSS
VL: DIQMTQSPSSLSASVGDRVTITCRASQSISSYLAWYQQKPGKAPKLLIYGASSRASGVPSRFSGSGSGTDFTLTISSLQPEDFATYYCQQYYSSPLTFGQGTKVEIK
As for B1, the Kd in [5] is 7.3 nM; in series [6] it was 8.6 nM.

B2: chimeric 10H5-IgG (antibody, V domains shown)
VH: QVQLQQPGAELVKPGASVTLSCKASGYTFTRFWIHWVKQRPGQGLEWIGEINPSNGRTNYNENFKNKATLTVDTSSSTAYMQLSSLTSEVSVVYYCARGGRLDQWGQGTT
VL: DIVMTQSQKFMSTSLGDRVSVTCKASQNVGSNVAWYQQKPGQSPEALIYSASYRYSGVPDRFTGSGSGTDFTLTISNVQSEDLAEYFCHQYNNYPYTFGGGTKVEIKR
notes: also called human chimeric 10H5
As for B2, the Kd turned out to be 0.1 nM in series [7] and 0.13 nM in series [8].

B3: chimeric 9F2-IgG (antibody, V domains shown)
VH: QIQLVQSGPELKKPGETVKISCKASGYTLANYGMNWVKQAPGKGFKWMGWINTNTGKPTYSDEFKGRFVFSLETSASTAYLLINNLSNEDTATYFCARSIYYYGSRYFNVWGAGTT
VL: DIQMTQSTSSLSASLGDRVTISCRASQDINNYLTWYQQKPDGTVKLLIYYTSRLHSGVPSRFSGSGSGTDYSLTITNLEQEDFATYFCQQGNTLPWTFGEGTKVEIKR
notes: also called human chimeric 9F2
As to B3, the Kd in series [8] is 0.17 nM.

B4: 2B4: mouse monoclonal anti-IGF-1R antibody from hybridoma 2B4.2.8, ATCC PTA-7009 (antibody, V domains shown)
VH: QIQLVQSGPELKKPGETVKISCKASGYNLANYGLNWVKQAPGEGLKWMGWINTNTGAPTYAEEFKGRFVFFLETSASTAYLQINNLSDEDTATYFCARSIYYYASRYFNVWGAGTS
VL: B3 VL with S7T, R18K, N30S, T34N, V44I, V58I, T76S, F83I, E100G
B4: the “inhibition of IGF-I or IGF-II binding to IGF-1R” value in series [9] is on record as “most potent group”. In addition, the “inhibition of IGF-I-mediated AKT activation” value in series [10] (serum-starved MCF7, IGF-I 50 ng/ml) is listed as “potently prevented AKT activation”. Besides, the “inhibition of IGF-II-mediated IGF-1R phosphorylation and downstream AKT and MAPK1/2 activation” value in series [10] (serum-starved MCF7, IGF-II 100 ng/ml) is “remained as strong inhibitors”. In [11], the “inhibition of IGF-I/II-mediated IGF-1R phosphorylation (KIRA)” value was “most effective group”.
